Tests used:
C1q = experiment: SPR (Biacore 8K+), antibody captured by anti-human IgG Fc, C1q injected at 25 nM, mean response
human FcRn (human) = human FcRn (human) (UniProt P55899); experiment: SPR (Biacore 8K+), antibody captured by anti-human kappa, human FcRn injected, pH 5.8; pH 5.8
[1] = molecular target: cynomolgus FcRn (cynomolgus) (UniProt Q8SPV9); experiment: SPR (Biacore 8K+), antibody captured by anti-human kappa, cynomolgus FcRn injected, pH 5.8; pH 5.8

Sequence of human FcRn (human) (P55899 24-297 limits assumed, form in doubt, chain 1 of 2): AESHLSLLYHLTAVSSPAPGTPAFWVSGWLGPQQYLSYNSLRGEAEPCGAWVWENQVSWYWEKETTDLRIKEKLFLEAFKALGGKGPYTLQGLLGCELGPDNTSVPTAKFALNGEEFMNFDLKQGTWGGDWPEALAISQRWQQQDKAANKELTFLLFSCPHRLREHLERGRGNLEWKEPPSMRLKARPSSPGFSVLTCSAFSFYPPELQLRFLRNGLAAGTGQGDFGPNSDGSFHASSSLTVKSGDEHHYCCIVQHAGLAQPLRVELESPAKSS
Sequence of human FcRn (human) (chain, as listed by the source limits assumed, form in doubt, chain 2 of 2): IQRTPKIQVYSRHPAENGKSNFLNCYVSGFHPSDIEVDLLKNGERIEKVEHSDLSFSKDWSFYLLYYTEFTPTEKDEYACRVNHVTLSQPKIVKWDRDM
Sequence of C1q (P02745 23-245, chain 1 of 3): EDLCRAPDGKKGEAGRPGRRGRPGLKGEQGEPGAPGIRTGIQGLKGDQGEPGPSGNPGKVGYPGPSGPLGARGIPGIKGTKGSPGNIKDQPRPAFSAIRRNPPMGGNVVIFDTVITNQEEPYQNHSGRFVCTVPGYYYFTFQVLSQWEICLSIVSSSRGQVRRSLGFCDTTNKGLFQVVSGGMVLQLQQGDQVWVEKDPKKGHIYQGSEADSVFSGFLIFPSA
Sequence of C1q (P02746 28-253, chain 2 of 3, further chain): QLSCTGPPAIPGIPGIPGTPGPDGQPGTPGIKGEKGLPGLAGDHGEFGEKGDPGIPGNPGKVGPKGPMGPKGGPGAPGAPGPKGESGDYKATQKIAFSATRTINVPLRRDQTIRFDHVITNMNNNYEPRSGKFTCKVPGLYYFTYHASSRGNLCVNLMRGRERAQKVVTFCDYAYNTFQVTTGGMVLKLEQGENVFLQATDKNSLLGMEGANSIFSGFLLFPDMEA
Sequence of C1q (P02747 29-245, chain 3 of 3, further chain): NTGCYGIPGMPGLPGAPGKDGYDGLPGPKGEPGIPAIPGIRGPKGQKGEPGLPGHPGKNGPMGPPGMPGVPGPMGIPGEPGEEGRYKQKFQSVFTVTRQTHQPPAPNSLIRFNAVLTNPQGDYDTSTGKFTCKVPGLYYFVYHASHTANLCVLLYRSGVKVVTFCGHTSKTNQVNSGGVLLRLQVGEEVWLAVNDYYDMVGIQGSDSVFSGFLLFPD

| Substance | RU at 25 nM C1q (C1q) [RU] | Kd (human FcRn (human)) [nM] | Kd [1] [nM] |
| --- | --- | --- | --- |
| Rituximab, an anti-CD20 antibody | 386 |  |  |
| positive control based on the sequences of the anti-hOX40L antibody amlitelimab |  | 1110 | 926 |

Source: patent US20260217843A1
